No end group written: not given here.
T1: 4Ig-domain of Neogenin (Gallus gallus, UniProt Q90610)
T1 construct: made in house
T1 sequence (Q90610 1-383): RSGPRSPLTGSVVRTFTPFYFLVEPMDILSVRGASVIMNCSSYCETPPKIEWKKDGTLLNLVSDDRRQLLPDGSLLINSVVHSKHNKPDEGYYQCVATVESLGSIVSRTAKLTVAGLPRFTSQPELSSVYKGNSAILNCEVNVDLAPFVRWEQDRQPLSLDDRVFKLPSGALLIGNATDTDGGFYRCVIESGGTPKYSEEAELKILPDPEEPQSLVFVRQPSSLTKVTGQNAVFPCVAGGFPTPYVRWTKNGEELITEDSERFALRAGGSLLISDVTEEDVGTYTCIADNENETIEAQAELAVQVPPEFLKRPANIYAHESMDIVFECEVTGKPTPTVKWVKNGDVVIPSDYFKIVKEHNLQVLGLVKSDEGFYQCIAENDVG

B1: C-RGMa: C-terminal RGMa isoform of the CNS (protein)
chain: PHLRTFTDTFQTCKVQGAWPLIDNNYLNVQVTNTPVLPGSSATATSKLTIIFKSFQECVEQKVYQAEMDELPAAFADGSKNGGDKHGANSLKITEKVSGQHIEIQAKYIGTTIVVRQVGRYLTFAVRMPEEVVNAVEDRDSQGLYLCLRGCPLNQQIDFQTFRLAQAAEGRARRKGPSLPAPPEAFTYESATAKCREKLPVEDLYFQSCVFDLLTTGDVNFMLAAYYAFEDVKMLHSNKDKLHLYERTRALAPGN
B2: N-RGMa (SEQ ID NO:10): N-RGMa from mouse (protein)
chain: MQPPRERLVVTGRAGWMGMGRGAGRSALGLWPTLAFLLCSFPAAISPCKILKCNSEFWSATSSGSHAPASDDVPEFCAALRTYALCTRRTARTCRGDLAYHSAVHGIEDLMSQHNCSKDGPTSQPRVRTLPPAGDSQERSDSPEICHYEKSFHKHSAAPNYT
modifications: Mouse N-RGMa
notes: N-RGMa from mouse
B3: N-RGMc (SEQ ID NO:9): N-RGMc from mouse (protein)
chain: MGQSPSPRSPHGSPPTLSTLTLLLLLCGQAHSQCKILRCNAEYVSSTLSLRGGGSPDTPRGGGRGGLASGGLCRALRSYALCTRRTARTCRGDLAFHSAVHGIEDLMIQHNCSRQGPTAPPPARGPALPGAGPAPLTPDPCDYEARFSRLHGRAPGFLHCASFGD
modifications: Mouse N-RGMc
notes: N-RGMc from mouse

How the values were obtained:
[1] = molecular target: T1, 4Ig-domain of Neogenin; assay: ELISA / AP binding assay of RGMa peptides to Neogenin domains; conditions: AP-tagged fragments 1.0 μg/mL on coated His-tagged 4Ig
Excerpt: Specifically, the 4Ig-domain and 6FNIII-domain of Neogenin were each fused to alkaline phosphatase (AP). The 4Ig-domain and 6FNIII-domain of Neogenin were found in the extracellular portion of Neogenin. Accession No. AAC59662 (SEQ ID NO:1) was the amino acid sequence of Neogenin. The 4Ig-domain was amino acids 1 to 383 of Accession No. AAC59662 (SEQ ID NO:1). The 6FNIII-domain was amino acids 429 to 1036 of Accession No. AAC59662 (SEQ ID NO:1).
The binding of these fusions to various RGMa peptides were analyzed in an ELISA assay (FIG. 2A).
To determine if distinct N-terminal regions of RGMa bound the 4Ig- and 6FNIII-domains of Neogenin, peptides were generated that spanned the N-terminal region of RGMa. The amino acid sequence of RGMa was Accession No. NP_989868.1 (SEQ ID NO:6). These peptides were a peptide spanning amino acids 28-73 of RGMa (also referred to herein as “N-Raft”) and a peptide spanning amino acids 77-113 of RGMa (also referred to herein as “N-inh”). […] In a complementary experiment, in which the N-Raft and N-inh peptides of RGMa were fused with AP instead of the 4Ig- and 6FNIII-domains of Neogenin, N-Raft bound to the 4Ig-domain and not the 6FNIII-domain while N-inh bound to the 6FNIII-domain and not the 4Ig-domain (FIG. 9). Additionally, N-inh and N-Raft coated beads pulled down 6FNIII-domain and 4Ig-domain, respectively, which was consistent with the ELISA results described above (FIG. 2B).
The assay was conducted in a 96-well microtiter plate (Corning Incorporated). The wells were coated with 100 μl (10 μg/mL) of Poly-L-Lysine at 4° C. overnight. Wells were then washed three times with 100 μl of PB ST (+0.02% Tween).
50 μl (2.5 μg/mL) of His-tagged: Full-length Neogenin; the 4Ig-domain of Neogenin; and 6FNIII-domain of Neogenin were coated onto each well for 1 hour at 37° C. Following three washes of 100 μl PBST, each well was then blocked with 300 μl of 3% BSA in PBST for 1 hour at 37° C.
50 μl (1.0 μg/mL) AP-tagged: N-RGMa (28-73); N-RGMa (28-54); N-RGMa (40-62); N-RGMa (54-73); N-RGMa (54-62) in 1% BSA+PBST was then added to each well and incubated at 37° C. for 1 hour. Each well was washed thoroughly three times with 100 μl PBST followed by subsequent equilibration of each well with Alkaline Phosphatase (AP) developing buffer (100 mM NaHCO3, 1 mM MgCl2). The reaction was developed using AP developing buffer supplemented with, p-nitrophenyl phosphate (pNPP) (Sigma-Aldrich) and allowed to develop until color development. The reaction was stopped with the addition of 50 μl (0.1M) NaOH. The absorbance of each reaction was measured using a microplate autoreader (BIO-TEK Instruments Inc.) at 405 nanometers (nm) wavelength.

[2] = system: temporal retinal explants (axonal outgrowth); assay: Retinal explants outgrowth assay; type: cell-based, chick; conditions: protein as substrate
Procedure: Poly-L-Lysine (SIGMA; 10 μg/ml) coated glass coverslips were treated with Laminin (Invitrogen; 10 μg/ml) and RGMa proteins (5 μg/ml) and incubated for 3 hours at room temperature. Temporal retinal explants were cultured on protein-coated surfaces for 18 hours. To disrupt the lipid rafts, explants were pretreated with 10 mM methyl-β-cyclodextrin (MβCD) for 12 minutes or 2 U/ml cholesterol oxidase (CO) for 1 hour at 37° C. Explants were then fixed with 4% paraformaldehyde (PFA) and stained with Alexa488-phalloidin. Fiber length was quantified using Image Pro 5.0. For immunolocalization, explants were treated with Cholera Toxin B-FITC (C1655; Sigma; 10 mg/mL) and patched, fixed and stained with Neogenin antibody. Retinal ganglion cells (RGCs) were electroporated with RGMa-His and cultured for 18 hours. The cells were fixed and stained with Neogenin and His-tag antibodies.
Retinal explants outgrowth assay. Poly-L-Lysine (PLL; SIGMA; 10 μg/ml) coated glass coverslips were treated with Laminin (10 μg/ml; Invitrogen) and RGMa proteins (5 μg) and incubated for 3 hrs at room temperature. PLL treated coverslips were coated with myelin overnight (6 μg/cm2), followed by coating with Laminin. Temporal retinal explants were cultured on either myelin or protein-coated surfaces in DMEM F-12 media (2% chick serum, 10% FBS) for 18 h. To disrupt rafts, explants were pre-treated with 10 mM MβCD for 12 min or 2 U/ml CO for 1 h at 37° C., washed, and cultured on protein coated coverslips. Explants were then fixed with 4% PFA and stained with Alexa488-fluor-phalloidin (1:50; Molecular Probes). Fiber length was quantified using Image Pro 5.0.
Statistical analysis of retinal outgrowth assays was performed using Student's two-tail t-test using Excel (Microsoft). Results were expressed as the mean±SEM (n=at least 3 independent experiments; 2 duplicates per independent experiment, >10 explants per duplicate).

| Molecule | binding to the 4Ig-domain of Neogenin [1] | effect on axonal outgrowth when provided as growth substrate (in trans) [2] |
| --- | --- | --- |
| N-RGMa (40-62aa): amino acids 40-62 of RGMa (SEQ ID NO:4), AP-tagged (WAATSGSHHLGAEETPEFCTALR; also: AP-tagged) | bound specifically | – |
| N-RGMa (54-73aa): amino acids 54 to 73 of RGMa (SEQ ID NO:3), AP-tagged (TPEFCTALRAYAHCTRRTAR; cysteine pairing not given here; also: AP-tagged) | bound specifically | – |
| B1 | – | blocked axon growth |
| B2 | demonstrated binding | – |
| B3 | demonstrated binding | – |

Source: patent US11497796B2, “Agents directed against a cis RGMa/neogenin interaction or lipid rafts and use of the same in methods of treatment” (UNIVERSITY HEALTH NETWORK, priority 2013, dated 2022)
